Our source for the Kd values is patent publication US20230176076.

The Kd is the free concentration of one partner at which half of the binding sites on the other are occupied at equilibrium, for simple one-to-one binding. Read a low Kd as tighter binding.

The test system of the data set is T1, JUL1 (JULGI) (Arabidopsis thaliana).
T1 sequence: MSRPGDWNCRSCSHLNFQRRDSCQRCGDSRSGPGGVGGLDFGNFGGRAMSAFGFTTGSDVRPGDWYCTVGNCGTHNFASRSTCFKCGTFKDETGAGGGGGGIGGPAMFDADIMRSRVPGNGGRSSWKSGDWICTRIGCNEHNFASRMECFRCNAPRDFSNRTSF
As to the kind of experiment: EMSA. The settings on record: method inferred from context.

Regarding SMXL5 5'UTR G-quadruplex probe, the Kd is 130 nM (with potassium) and 230 nM (without potassium).
